From the nanobody polyreactivity screen of Harvey et al. (2022)

Test: yeast display, Sf9 membrane polyspecificity reagent, FACS + sequencing; frameworks hold sequencing errors
Method in brief: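 Synthetic nanobody libraries on Saccharomyces cerevisiae BJ5465 were galactose-induced for 36–48 hours, stained 1 hour at 4 °C with 10% biotinylated, detergent-solubilized Sf9 membrane reagent and enriched on streptavidin microbeads. FACS then separated cells into low and high (top ~1%) gates by anti-HA (expression) and streptavidin (reagent binding) fluorescence. Genes were colony-PCR amplified, MiSeq 2 × 250 sequenced and CDR-length filtered. A clone's polyreactivity label is that of its gate of origin.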

Row | Sequence | polyreactivity (PSR sort gate)
1 | QVQLVESAGGLVQAGGSLSLSCAATGITFPYVMGWYRQAPGKQRELVAAISRTGTSTYYADSVKGRFTISRDNAKNTVYLQMNSLKPEDTAVYYCAARTQTQVYPAYGYWGQGTQVTVSS | high polyreactivity
2 | QVQLVESGGGLVQAGGSLRLSCAASGSTFGSYVMGWYRQAPGKERELVAAISGSGGSTYYADSVKGRFTISRDNAKNTVYLQMTSLKPEDTAVYYCAAYVFFPWYGYWGQGTQVTVSS | high polyreactivity
3 | QVQLVESGGGLVQAGGSLRLSCAASGRILRVNAMGWYRQAPGKERELVATITFRGGSTYYADSVKGRCTISRDNAKNTVYLQMNSLKPEDTAVYSCAKVIYRYNETYDYWGQGTQVTVSS | high polyreactivity
4 | QVQIVESGGGLIQEGGSLRLSCAASGSTFYYYAMGWYRPAPGKERELVAAIDRDDRTNYADSVKGRFTSSRDNAQNTVYLQMTSLKPEDTAVYYCAAVEIYEYDYWGQGTQVTVSS | low polyreactivity
5 | QVQLVESGGGLVQAGGSLRLSCAASGRIFTTYAMGWYRQAPGKERELVAAISRSGGSTYYADSVKGRFTISRDNAKNTVYLQMNSLKPEDTAVYYCAAVPTSNSFRSSFYYWGQGTQVTVSS | high polyreactivity
6 | QVQLVESGGGLVQAGGSLRLSCAASGRIFSLYAMGWYRPAPGKEMELVAAITGIGGSTYYADSVKGRFTISRDNAKNTVYLQMNSLKPDDTAVYYCAARYPATYPSMGYWGQGTQLTVSS | low polyreactivity
7 | QVQLEESGGGLVQAGGSLRLSCAASGRIFVNYDMGSDRQAPGKERELVADISISGSTDYADSVKGRFTISRDNAKNTVYLQMNSLKPEDTAVYYCATSFYVSDYYVPYEMGYWGQGTQVTVSS | low polyreactivity
8 | QVQLVESGGGLVQAGGSLRLSCAASGSILESIVMGWYRQAPGKERELVASISSSGDSSYADSVKGRFTISRDNAKNTVYLQMNSLKPEDTAVYYCAADRWYWTYALYYWGQGTQVTVSS | low polyreactivity
9 | QVQLVESGGGLVQAGGSLRLSCAASGSTFDWYAMGWYRQAPGKERELVAAITSGGSTYYADSVKGRFTISRDNAKNTVYLQMNSLKPEDTAVYYCAAESRQVRYILYYYWGQGTQVTVSS | low polyreactivity
10 | QVQRVESGGGLVQAGGSLRLSCAPSGSTFPSYAMGWYRQAPGKERELVAAITRRGGRTYYADSVKGRFTISRDNAKKTVYLQMNSLKPEDTAVYYCNRVSRKILDGDYDYWGQGTQVTVSS | high polyreactivity
11 | QVQLVDSGGGLVQAGGSLRLSCAASGRTLAGYVMGWYRQAPGKERELVATISNGGSTYYADSVKGRFTISRDNAKNTVYLQMNSLKPEDTAVYYCNRYWYRKHSTDPPVRYRPVGYWGQGTQVTVSS | high polyreactivity
12 | QVQLVDSGGGLVQAGGSLRLSCAASGFTFDGYAMGWYRQAPGQEREFVATISLSGGSTYYADSVKGRCTISRDNAKNTVYLQMNSLNPEDTAVYYCGKDTQPYLIDGFEYWGQGTQVTVSS | low polyreactivity
13 | QVQLVESGGGLVQAGGSLRLSCAASGITFSKYAMGWFRHAPGKERELFASITWSGTSTYYADSVKGRFTISRDNAKNTVYLQMKSLKPEDTAVYYCAADGWGTFWRAQNGYGYEHDYWGKGTQVTVSS | low polyreactivity
14 | QVQLVESGGGLDQAGGSLRLSCAASGSTFTSYDMGWYIQAPGKERELVAAITISSGGTYYADSVKGRFTISRDTAKNTVYLQMNSLKPEDTEVYYCAADIFADASYDYWGLGTQVTVSS | low polyreactivity
15 | QVQLVESGGGLVQAGGSLRLSCAASGRIIGRYVMGWYRQAPGKERELVAAITRGGSTNYADSVKGRFTISRDNAKNTVYLQMNSLKPEDTAVYYCARAYSTVNRYSMYYWGQGTQVTVSS | high polyreactivity
16 | QVQLVESGGGLVQAGGSLRLSCAASGRIFGYYAMGWFRQAPGKERELVATITFGGGSTYYADSVKGRFTISRDNAKNTVYLQMNSPKPEDTAVYYCAADSGYLGIYGDEYSWGQGTQVTVSS | low polyreactivity

Row | Sequence | polyreactivity (PSR sort gate)
17 | QVQLVESGGGLVQAGGSLRLSCAASGITFNDYALGWYRQAPGKERELDAAIDWSGGRTYYADSVKGRFTISRDNAKNTVYLQMNSLKPEDTAVYYCAAVLYSRLFWYRLDYWGQGTQVTVSS | low polyreactivity
18 | QVQIVESGGGLVQAGGSLRLSCAASGRTLDSNAIGWYRKATRKERVLVAAISSAGSTNYADSVKGRFTISRDNAKNTVYLQMNSLKPEDTAVYYCAADLIGSHDYSGQGTQVTVSS | low polyreactivity
19 | QVQLLESWGGLVHAGGSVRLSCAASGSIFGYNAMGWYRESPGKEREWVAAISWDGGSTYYADSVKGRFTISRDNAKYNVFLQMNSLKPEDTAVYYCAAEGLRFVYEYWGQGTQVTVSS | low polyreactivity
20 | QVQLVESGGGLVQAGGSLRLSCAASGITFYFNAMGWYRQAPGKERELVAAITFSGSSTYYADSVKGRFTISRDNAKNTVYLQMNSQKPEDSAVYYCAAYLTRYDFRWHTYYYWGLGTQVTVSS | low polyreactivity
21 | QVHLVESGGGLVQAGGSLRLSCAASGFIFAEYAMGWYRQEPGKERELVATINIGGSTYYADSVKGRFTISRDNAKNTVYLQMNSLKPEDTAVYYCAAEFWWGDGSQGIYDYDYWGQGSQVTVSS | low polyreactivity
22 | QVQLVDSGGGLVQAGGSLRLSCAASGSTFYFYAMGWYRQAPGKQRELVAAITWTDGDTYYADSVKGRFTISRDIAKNTVYLQMNSLKPEDTAVYYCATDSFWYEYDYWGQGTQVTVSS | high polyreactivity
23 | QVQLVESGGGLVQAGGSLRLSCAASGSIFYFNAMGWYRQAPGKERELVAAINSGGSTYYADSVKGRFTISRDNAKNTVYLQMNSLKPEDTAVYYCAAVKVDYYITMYYWGQGTQVTVSS | high polyreactivity
24 | QVQLVESGGGLVQAGGSLRLSCAASGSIFGYTTMGWYRQGPGKERELVAAINWSDGHTNYADSVKGRFTISRDNANNTVYLQLNSLKPEDTAVYYCAADWYRSSWTYNYWGQGSQVTVSS | low polyreactivity
25 | QVQLVESGGGLVQAGGSLRLSCAASGRIFPYNAMGWSRQAPGQERELVARIDSGGRTNYADSVKGRFTISRDNAKNTVYLQMNSLKPEDTAVYYCARVFSLARSWYRYYYWGQGTQVTVSS | high polyreactivity
26 | QVQLVESGGGLVQAGGSLRLSCAASGLIFYRYAMGWYRQAPGKERELVADISWSGGTTYYADSVKGRFTISRDNAKNTVYLQMNSLKPEDTAVYYCAARSVPSPERGFYYWGQGTQVTVSS | high polyreactivity
27 | QVQLVESGGGLVQAGGSLRLSCAASGRTFYNNAMGWYRQAPGKERELVAAISQRTGRTYYADSVKGRFTISRDNAKNTVYLQMNSLKPEDTAVYYCNKVAYYSRRMDYWGQGTQVTVSS | high polyreactivity
28 | QVQLVESGGGLVQAGGSLRLSCAASGYTFGYNVMGWYRQAPGKERELVAVISSGGTTYYADSVKGRFTISRDNAKNTVYLQMNSLKPEDTAVYYCNKRSAYKFSTHYGYYYWGQGTQVNVSS | high polyreactivity
29 | QVQLVESGGGLVQAGGSLRLSCAASGRTLRHYAMGWYRQAPGKERELVAAISSTGSSTYYADSVKGRFTISRDNAKITVYLQMNSLKPEDTAVYYCAADKYTWDAGGVVYWGQGTQVTVSS | low polyreactivity
30 | QVQLVESGGGLVQAGGSLRLSCAASGRIFRRYAMGWYRQAPGKERELVASITWGGSSTSYADSVKGRFTISRDNAKNTVYLQMNSLKPEDTAVYYCNADFPTAIPYGYDYWGQGTQVTVSS | low polyreactivity
31 | QVQLVESGGGLVQAGGSLRLSCAASGSTFTVYAMGWYRQAPGKERELVAAIRDGSSTNYADSVKGRFTISRDNAKNTVYLQMNSLKPEDTAVYYCNAPYPPTGYGDDDYWGQGTQVTVSS | low polyreactivity
32 | QVQLVESGGGLVQAGGSLRLSCAASGFTFVINYMGWYRQAPGKERELVADITSGGDTYYADSVKGRFTISRDNAKNTVYLQMNSLNPEDTAVYYCAADIYPDWIYLLYGYWGQVTQVTVSS | low polyreactivity
